# Measurements reported in PMC7744066.
# Biological target: Aldob (aldolase B) (UniProt P05062)
# Test: anti-Flag (Aldob) co-IP, Myc-Akt1 blot
# Settings: reference: Myc-Akt1 wild type
Substance,binding against the reference (sites S473),binding against the reference (sites T308)
Akt1 (from UniProt P31749) Myc-Akt1 S473A,weaker,
Akt1 (from UniProt P31749) Myc-Akt1 T308A,,weaker
